Tested on: Escherichia coli TOP10
Experiment: shrunken log2 fold change of peptide-encoding DNA abundance (4.5 h post-induction vs induction); higher = less antimicrobial activity (less host growth inhibition)
Details: time post-induction: 4.5 h; library: site-saturation at positions 5, 18, 19, 20
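Further: peptides expressed intracellularly from a pBAD plasmid library in pooled LB shake-flask culture, induced with 0.3% L-arabinose, DNA abundance read by NGS, three biological replicates, DESeq2 with apeglm shrinkage.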

Sequence: RRIRERPPRLPRPRPRPWEDPRP
- shrunken log2 fold change: -0.0727

Sequence: RRIRGRPPRLPRPRPRPVTFPRP
- shrunken log2 fold change: 0.172

Sequence: RRIRNRPPRLPRPRPRPHWYPRP
- shrunken log2 fold change: -0.0582

Sequence: RRIRFRPPRLPRPRPRPGWVPRP
- shrunken log2 fold change: 0.176

Sequence: RRIRWRPPRLPRPRPRPYVQPRP
- shrunken log2 fold change: -0.0608

Sequence: RRIRRRPPRLPRPRPRPKGLPRP
- shrunken log2 fold change: 0.238

Sequence: RRIRQRPPRLPRPRPRPLLLPRP
- shrunken log2 fold change: -0.363

Sequence: RRIRHRPPRLPRPRPRPQQCPRP
- shrunken log2 fold change: -0.0705

Sequence: RRIRCRPPRLPRPRPRPRFKPRP
- shrunken log2 fold change: -0.00257

Sequence: RRIRHRPPRLPRPRPRPRVKPRP
- shrunken log2 fold change: -0.00109

Sequence: RRIRWRPPRLPRPRPRPWMGPRP
- shrunken log2 fold change: 0.0275

Sequence: RRIRERPPRLPRPRPRPPPKPRP
- shrunken log2 fold change: 0.748

Sequence: RRIRHRPPRLPRPRPRPYPPPRP
- shrunken log2 fold change: -0.694

Sequence: RRIRWRPPRLPRPRPRPIATPRP
- shrunken log2 fold change: 0.435

Sequence: RRIRDRPPRLPRPRPRPRPDPRP
- shrunken log2 fold change: 0.379

Sequence: RRIRRRPPRLPRPRPRPKVRPRP
- shrunken log2 fold change: 0.111

Sequence: RRIRFRPPRLPRPRPRPKRMPRP
- shrunken log2 fold change: 0.133

Sequence: RRIRGRPPRLPRPRPRPVIIPRP
- shrunken log2 fold change: 2.29

Sequence: RRIRPRPPRLPRPRPRPARKPRP
- shrunken log2 fold change: 0.705

Sequence: RRIRDRPPRLPRPRPRPDWLPRP
- shrunken log2 fold change: 0.34

Sequence: RRIRYRPPRLPRPRPRPFRQPRP
- shrunken log2 fold change: 0.0775

Sequence: RRIRVRPPRLPRPRPRPMKHPRP
- shrunken log2 fold change: -0.525

Sequence: RRIRLRPPRLPRPRPRPTQQPRP
- shrunken log2 fold change: 0.0862

Sequence: RRIRLRPPRLPRPRPRPPRMPRP
- shrunken log2 fold change: 0.232

Sequence: RRIRLRPPRLPRPRPRPEAEPRP
- shrunken log2 fold change: 0.96

Sequence: RRIRNRPPRLPRPRPRPKVFPRP
- shrunken log2 fold change: 0.0215

Sequence: RRIRPRPPRLPRPRPRPQKCPRP
- shrunken log2 fold change: -0.0778

Sequence: RRIRWRPPRLPRPRPRPHYMPRP
- shrunken log2 fold change: -0.825

Sequence: RRIRTRPPRLPRPRPRPLCTPRP
- shrunken log2 fold change: -0.106

Sequence: RRIRNRPPRLPRPRPRPSQRPRP
- shrunken log2 fold change: -0.0448

Sequence: RRIRQRPPRLPRPRPRPGGVPRP
- shrunken log2 fold change: 0.463

Sequence: RRIRHRPPRLPRPRPRPCNIPRP
- shrunken log2 fold change: -0.236

Sequence: RRIRDRPPRLPRPRPRPIHSPRP
- shrunken log2 fold change: -0.00999

Sequence: RRIRMRPPRLPRPRPRPEEMPRP
- shrunken log2 fold change: 3.07

Sequence: RRIRVRPPRLPRPRPRPRPEPRP
- shrunken log2 fold change: 0.609

Sequence: RRIRYRPPRLPRPRPRPLREPRP
- shrunken log2 fold change: 0.483

Sequence: RRIRIRPPRLPRPRPRPEQQPRP
- shrunken log2 fold change: -0.132

Sequence: RRIRFRPPRLPRPRPRPYACPRP
- shrunken log2 fold change: 0.0338

Sequence: RRIRVRPPRLPRPRPRPGLGPRP
- shrunken log2 fold change: 0.134

Sequence: RRIRKRPPRLPRPRPRPQPIPRP
- shrunken log2 fold change: 0.424

Sequence: RRIRIRPPRLPRPRPRPYHVPRP
- shrunken log2 fold change: -0.186

Sequence: RRIRTRPPRLPRPRPRPFKMPRP
- shrunken log2 fold change: -0.184

Sequence: RRIRGRPPRLPRPRPRPAQGPRP
- shrunken log2 fold change: 0.313

Sequence: RRIRTRPPRLPRPRPRPIEMPRP
- shrunken log2 fold change: -0.25

Sequence: RRIRARPPRLPRPRPRPNTVPRP
- shrunken log2 fold change: 0.0514

Sequence: RRIRGRPPRLPRPRPRPHLQPRP
- shrunken log2 fold change: 0.479

Sequence: RRIRMRPPRLPRPRPRPMSDPRP
- shrunken log2 fold change: -0.095

Sequence: RRIRERPPRLPRPRPRPSHQPRP
- shrunken log2 fold change: -0.19

Sequence: RRIRLRPPRLPRPRPRPSRQPRP
- shrunken log2 fold change: -0.189

Sequence: RRIRKRPPRLPRPRPRPLDEPRP
- shrunken log2 fold change: 0.0161

Sequence: RRIRVRPPRLPRPRPRPNSEPRP
- shrunken log2 fold change: -0.43

Sequence: RRIRQRPPRLPRPRPRPWGTPRP
- shrunken log2 fold change: -0.239

Sequence: RRIRIRPPRLPRPRPRPGGCPRP
- shrunken log2 fold change: 0.0544

Sequence: RRIRPRPPRLPRPRPRPNHCPRP
- shrunken log2 fold change: -1.08

Sequence: RRIRWRPPRLPRPRPRPWPSPRP
- shrunken log2 fold change: 0.018

Sequence: RRIRERPPRLPRPRPRPSFNPRP
- shrunken log2 fold change: -0.637

Sequence: RRIRHRPPRLPRPRPRPFSQPRP
- shrunken log2 fold change: -0.302

Sequence: RRIRTRPPRLPRPRPRPWNRPRP
- shrunken log2 fold change: -0.0406

Sequence: RRIRMRPPRLPRPRPRPMIPPRP
- shrunken log2 fold change: -0.448

Sequence: RRIRMRPPRLPRPRPRPMYVPRP
- shrunken log2 fold change: 0.115

Sequence: RRIRTRPPRLPRPRPRPQQLPRP
- shrunken log2 fold change: 1.75

Sequence: RRIRFRPPRLPRPRPRPFGIPRP
- shrunken log2 fold change: -0.197

Sequence: RRIRIRPPRLPRPRPRPDTIPRP
- shrunken log2 fold change: -0.0883

Sequence: RRIRPRPPRLPRPRPRPIYGPRP
- shrunken log2 fold change: -0.0498

Sequence: RRIRNRPPRLPRPRPRPDNPPRP
- shrunken log2 fold change: -0.168

Sequence: RRIRPRPPRLPRPRPRPIYVPRP
- shrunken log2 fold change: -0.348

Sequence: RRIRNRPPRLPRPRPRPVENPRP
- shrunken log2 fold change: -0.0754

Sequence: RRIRYRPPRLPRPRPRPILVPRP
- shrunken log2 fold change: -0.237

Sequence: RRIRPRPPRLPRPRPRPKHKPRP
- shrunken log2 fold change: -0.0938

Sequence: RRIRHRPPRLPRPRPRPMRLPRP
- shrunken log2 fold change: 0.0431

Sequence: RRIRRRPPRLPRPRPRPRSTPRP
- shrunken log2 fold change: 0.36

Sequence: RRIRFRPPRLPRPRPRPSVKPRP
- shrunken log2 fold change: -0.347

Sequence: RRIRFRPPRLPRPRPRPENNPRP
- shrunken log2 fold change: -0.285

Sequence: RRIRSRPPRLPRPRPRPLVMPRP
- shrunken log2 fold change: -0.316

Sequence: RRIRTRPPRLPRPRPRPPLCPRP
- shrunken log2 fold change: 0.0694

Sequence: RRIRHRPPRLPRPRPRPSLYPRP
- shrunken log2 fold change: 0.07

Sequence: RRIRFRPPRLPRPRPRPLLMPRP
- shrunken log2 fold change: -0.564

Sequence: RRIRSRPPRLPRPRPRPTEWPRP
- shrunken log2 fold change: 0.00483

Sequence: RRIRCRPPRLPRPRPRPSAAPRP
- shrunken log2 fold change: 0.386

Sequence: RRIRFRPPRLPRPRPRPPIVPRP
- shrunken log2 fold change: -0.126

Sequence: RRIRVRPPRLPRPRPRPFKQPRP
- shrunken log2 fold change: -0.0195

Sequence: RRIRTRPPRLPRPRPRPKLDPRP
- shrunken log2 fold change: 0.2

Sequence: RRIRMRPPRLPRPRPRPAASPRP
- shrunken log2 fold change: 1.25

Sequence: RRIRQRPPRLPRPRPRPTLPPRP
- shrunken log2 fold change: 1.69

Sequence: RRIRHRPPRLPRPRPRPPIHPRP
- shrunken log2 fold change: -0.639

Sequence: RRIRMRPPRLPRPRPRPLYRPRP
- shrunken log2 fold change: -0.0998

Sequence: RRIRVRPPRLPRPRPRPRYTPRP
- shrunken log2 fold change: 0.0365

Sequence: RRIRDRPPRLPRPRPRPNSEPRP
- shrunken log2 fold change: 0.261

Sequence: RRIRLRPPRLPRPRPRPVQPPRP
- shrunken log2 fold change: 0.653

Sequence: RRIRSRPPRLPRPRPRPTIMPRP
- shrunken log2 fold change: -0.508

Sequence: RRIRMRPPRLPRPRPRPQCPPRP
- shrunken log2 fold change: -0.181

Sequence: RRIRYRPPRLPRPRPRPSCKPRP
- shrunken log2 fold change: -0.908

Sequence: RRIRTRPPRLPRPRPRPNGEPRP
- shrunken log2 fold change: -0.12

Sequence: RRIRDRPPRLPRPRPRPSQIPRP
- shrunken log2 fold change: 0.016

Sequence: RRIRGRPPRLPRPRPRPAVCPRP
- shrunken log2 fold change: 0.938

Sequence: RRIRERPPRLPRPRPRPTTDPRP
- shrunken log2 fold change: -0.148

Sequence: RRIRHRPPRLPRPRPRPDDAPRP
- shrunken log2 fold change: 0.0602

Sequence: RRIRNRPPRLPRPRPRPDPCPRP
- shrunken log2 fold change: -0.145

Sequence: RRIRVRPPRLPRPRPRPQHCPRP
- shrunken log2 fold change: 0.0856

Sequence: RRIRIRPPRLPRPRPRPASNPRP
- shrunken log2 fold change: -0.205

Sequence: RRIRERPPRLPRPRPRPLMGPRP
- shrunken log2 fold change: 0.247

Sequence: RRIRFRPPRLPRPRPRPDILPRP
- shrunken log2 fold change: -0.119

Sequence: RRIRYRPPRLPRPRPRPHEMPRP
- shrunken log2 fold change: 2.66

Sequence: RRIRNRPPRLPRPRPRPAGYPRP
- shrunken log2 fold change: -0.0215

Sequence: RRIRFRPPRLPRPRPRPAEVPRP
- shrunken log2 fold change: -0.127

Sequence: RRIRWRPPRLPRPRPRPQEIPRP
- shrunken log2 fold change: -0.0137

Sequence: RRIRNRPPRLPRPRPRPIMYPRP
- shrunken log2 fold change: -0.309

Sequence: RRIRGRPPRLPRPRPRPAYCPRP
- shrunken log2 fold change: 0.114

Sequence: RRIRQRPPRLPRPRPRPCSRPRP
- shrunken log2 fold change: 0.0758

Source: the supplement of paper PMC9112550, “Optimization of the antimicrobial peptide Bac7 by deep mutational scanning” (BMC Biology, 2022)
